Eight variants from IntAct's records for PubMed 15694340 can be followed below.

B1: Phorbol-12-myristate-13-acetate-induced protein 1 (Homo sapiens), Q13794 (parent)
chain: MPGKKARKNAQPSPARAPAELEVECATQLRRFGDKLNFRQKLLNLISKLFCSGT
B2: Phorbol-12-myristate-13-acetate-induced protein 1 (Homo sapiens), Q13794 (parent)
chain: B1 chain
partner: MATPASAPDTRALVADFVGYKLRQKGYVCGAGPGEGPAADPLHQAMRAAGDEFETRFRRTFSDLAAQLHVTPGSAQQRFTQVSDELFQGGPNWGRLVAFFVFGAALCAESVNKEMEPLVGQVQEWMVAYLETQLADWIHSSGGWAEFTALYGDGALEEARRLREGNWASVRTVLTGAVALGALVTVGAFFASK
B3: Bcl-2-like protein 11 (Mus musculus), O54918 (parent)
chain: MAKQPSDVSSECDREGGQLQPAERPPQLRPGAPTSLQTEPQGNPDGEGDRCPHGSPQGPLAPPASPGPFATRSPLFIFVRRSSLLSRSSSGYFSFDTDRSPAPMSCDKSTQTPSPPCQAFNHYLSAMASIRQSQEEPEDLRPEIRIAQELRRIGDEFNETYTRRVFANDYREAEDHPQMVILQLLRFIFRLVWRRH

Variants of B1 are the subject of one test. To be noted: with BCL2L1, Q07817-1.
Chain of BCL2L1, Q07817-1 (Q07817 whole entry): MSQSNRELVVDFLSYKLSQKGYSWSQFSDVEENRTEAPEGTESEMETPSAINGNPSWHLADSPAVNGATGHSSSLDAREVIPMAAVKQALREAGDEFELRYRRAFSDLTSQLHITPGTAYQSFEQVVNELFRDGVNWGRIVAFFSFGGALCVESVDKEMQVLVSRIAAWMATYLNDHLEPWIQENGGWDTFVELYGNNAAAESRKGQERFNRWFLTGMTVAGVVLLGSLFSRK
Regarding MPGKKARKNAQPSPARAPAELEVECATQLRRFGDELNFRQKLLNLISKLFCSGT [K35E], the “effect of a mutation on the interaction” value is on record as “increasing interaction”.

Regarding MPGKKARKNAQPSPARAPAELEVECATQLRRIGDKLNFRQKLLNLISKLFCSGT [F32I], the “effect of a mutation on the interaction” value is listed as “increasing interaction”.

Variants of B2 are the subject of the next test. To be noted: with BCL2L2, Q92843.
In the case of MPGKKARKNAQPSPARAPAELEVECATQLRRFGDELNFRQKLLNLISKLFCSGT [K35E], the “effect of a mutation on the interaction” value is “increasing interaction”.

In the case of MPGKKARKNAQPSPARAPAELEVECATQLRRIGDKLNFRQKLLNLISKLFCSGT [F32I], the “effect of a mutation on the interaction” value is “increasing interaction”.

In another test the parent is B3. The settings on record: with mcl1_mouse Mcl1, P97287.
Chain of mcl1_mouse Mcl1, P97287 (P97287 whole entry): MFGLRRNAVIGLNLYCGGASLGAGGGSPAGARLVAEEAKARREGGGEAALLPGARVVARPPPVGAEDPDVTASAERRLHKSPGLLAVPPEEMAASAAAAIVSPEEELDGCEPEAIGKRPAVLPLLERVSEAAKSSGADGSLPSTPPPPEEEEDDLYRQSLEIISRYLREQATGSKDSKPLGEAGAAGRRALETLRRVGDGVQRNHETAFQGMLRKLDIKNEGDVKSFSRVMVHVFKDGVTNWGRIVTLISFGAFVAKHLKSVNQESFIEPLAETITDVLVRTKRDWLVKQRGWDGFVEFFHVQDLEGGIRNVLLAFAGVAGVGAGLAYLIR
For MAKQPSDVSSECDREGGQLQPAERPPQLRPGAPTSLQTEPQGNPDGEGDRCPHGSPQGPLAPPASPGPFATRSPLFIFVRRSSLLSRSSSGYFSFDTDRSPAPMSCDKSTQTPSPPCQAFNHYLSAMASIRQSQEEPEDLRPEIRIAQELRRIGDEENETYTRRVFANDYREAEDHPQMVILQLLRFIFRLVWRRH [F157E], the “effect of a mutation on the interaction” value was “decreasing interaction”.

Take MAKQPSDVSSECDREGGQLQPAERPPQLRPGAPTSLQTEPQGNPDGEGDRCPHGSPQGPLAPPASPGPFATRSPLFIFVRRSSLLSRSSSGYFSFDTDRSPAPMSCDKSTQTPSPPCQAFNHYLSAMASIRQSQEEPEDLRPEIRIAQEERRIGDEFNETYTRRVFANDYREAEDHPQMVILQLLRFIFRLVWRRH [L150E]: the “effect of a mutation on the interaction” value was “decreasing interaction”.

Consider MAKQPSDVSSECDREGGQLQPAERPPQLRPGAPTSLQTEPQGNPDGEGDRCPHGSPQGPLAPPASPGPFATRSPLFIFVRRSSLLSRSSSGYFSFDTDRSPAPMSCDKSTQTPSPPCQAFNHYLSAMASIRQSQEEPEDLRPEIREAQELRRIGDEFNETYTRRVFANDYREAEDHPQMVILQLLRFIFRLVWRRH [I146E], for which the “effect of a mutation on the interaction” value was “decreasing interaction”.

Consider MAKQPSDVSSECDREGGQLQPAERPPQLRPGAPTSLQTEPQGNPDGEGDRCPHGSPQGPLAPPASPGPFATRSPLFIFVRRSSLLSRSSSGYFSFDTDRSPAPMSCDKSTQTPSPPCQAFNHYLSAMASIRQSQEEPEDLRPEIRIAQELRREGDEFNETYTRRVFANDYREAEDHPQMVILQLLRFIFRLVWRRH [I153E], for which the “effect of a mutation on the interaction” value is listed as “decreasing interaction”.
